Reference: patent US20260274955A1 (JANUX THERAPEUTICS, published 2026)

B1: Phage-526 (peptide)
peptide: YCDGHAKEYIQKCL
notes: on phage, pIII fusion
B2: Phage-550 (peptide)
peptide: YCDGHAPEYLTKCL
notes: on phage, pIII fusion; cell for position 6 is missing in the printed row
B3: Phage-547 (peptide)
peptide: YCEGHAPVYMFKCL
notes: on phage, pIII fusion
B4: Phage-553 (peptide)
peptide: YCDGHSVEYLDKCL
notes: on phage, pIII fusion
B5: Phage-527 (peptide)
peptide: YCEGHLPQYMVKCL
notes: on phage, pIII fusion
B6: Phage-568 (peptide)
peptide: YCDGHHKEYLLKCL
notes: on phage, pIII fusion
B7: Phage-556 (peptide)
peptide: YCDGHLAVYMAKCL
notes: on phage, pIII fusion
B8: Phage-528 (peptide)
peptide: YCQGHADEYMAKCL
notes: on phage, pIII fusion
B9: Phage-530 (peptide)
peptide: YCEGHLGIYMTKCL
notes: on phage, pIII fusion
B10: Phage-567 (peptide)
peptide: YCSGHLPQYLEKCL
notes: on phage, pIII fusion
B11: Phage-549 (peptide)
peptide: YCDGHNGVYWWKCI
notes: on phage, pIII fusion
B12: Phage-506 (peptide)
peptide: YCAGHSPQYMEKCL
notes: on phage, pIII fusion
B13: Phage-520 (peptide)
peptide: YCEGHADEYMWKCL
notes: on phage, pIII fusion
B14: Phage-531 (peptide)
peptide: YCDGHSWQYMWKCI
notes: on phage, pIII fusion
B15: Phage-502 (peptide)
peptide: YCDGHELKYMLKCL
notes: on phage, pIII fusion
B16: Phage-525 (peptide)
peptide: YCDGHLPQYLQKCT
notes: on phage, pIII fusion
B17: Phage-523 (peptide)
peptide: YCEGHSWEHMEKCL
notes: on phage, pIII fusion
B18: Phage-569 (peptide)
peptide: YCDGHLALHMKKCL
notes: on phage, pIII fusion
B19: Phage-503 (peptide)
peptide: YCDGHLLEYKAKCL
notes: on phage, pIII fusion
B20: Phage-529 (peptide)
peptide: YCDGHAEEYLLKCL
notes: on phage, pIII fusion
B21: Phage-557 (peptide)
peptide: YCAGHLPVYMDKCL
notes: on phage, pIII fusion
B22: Phage-552 (peptide)
peptide: YCDGHLQIYMGKCL
notes: on phage, pIII fusion
B23: Phage-555 (peptide)
peptide: YCDGHLPEYLAKCL
notes: on phage, pIII fusion
B24: Phage-532 (peptide)
peptide: YCEGHSEEFMSKCL
notes: on phage, pIII fusion
B25: Phage-548 (peptide)
peptide: YCEGHLGQYMEKCL
notes: on phage, pIII fusion
B26: Phage-524 (peptide)
peptide: YCAGHSSEYIPKCL
notes: on phage, pIII fusion
B27: Phage-554 (peptide)
peptide: YCDGHAWQYMWKCL
notes: on phage, pIII fusion
B28: Phage-559 (peptide)
peptide: YCAGHLEEYMWKCL
notes: on phage, pIII fusion
B29: Phage-565 (peptide)
peptide: YCDGHKAEYMQKCL
notes: on phage, pIII fusion
B30: Phage-551 (peptide)
peptide: YCEGHSIQYMTKCL
notes: on phage, pIII fusion
B31: Phage-558 (peptide)
peptide: YCEGHSAMYIWKCL
notes: on phage, pIII fusion
B32: Phage-521 (peptide)
peptide: YCEGHSVEYIGKCL
notes: on phage, pIII fusion
B33: Phage-505 (peptide)
peptide: YCDGHSPEYMLKCL
notes: on phage, pIII fusion

molecular target: T1, anti-CD28 Fab (SEQ ID NOs: 202, 203); test: phage ELISA on captured Fab, wells pre-incubated with CD28 antigen (competitor);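 also: clonal phage ELISA with wells pretreated with CD28 plus blocking buffer before phage addition, bound phage detected by HRP-linked anti-M13 antibody, reference wells got blocking buffer only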
T1 construct: biotinylated and captured on neutravidin coated plates in the phage ELISA
T1 sequence (VH, as listed by the source, chain 1 of 2): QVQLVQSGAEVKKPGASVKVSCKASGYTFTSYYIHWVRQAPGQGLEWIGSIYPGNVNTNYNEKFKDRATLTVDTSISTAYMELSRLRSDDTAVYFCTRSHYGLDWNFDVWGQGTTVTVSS
T1 sequence (VL, as listed by the source, chain 2 of 2): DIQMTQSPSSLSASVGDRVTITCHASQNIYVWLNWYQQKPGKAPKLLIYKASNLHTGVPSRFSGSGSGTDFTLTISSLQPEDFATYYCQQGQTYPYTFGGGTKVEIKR
Procedure: (§1) Clonal phage were harvested as crude supernatants and screened via standard ELISAs. […] Prior to the addition of clonal phage, wells were incubated with blocking buffer and CD28 antigen or blocking buffer alone. Without washing or aspirating, clonal phage supernatants were then added to the wells and incubated for a short time. Wells were then washed followed by detection of bound phage using a horse radish conjugated anti-M13 antibody.

Row | Binder | Anti-CD28 Fab signal in the presence of CD28
1 | B1 | 0.06
2 | B2 | 0.06
3 | B3 | 0.08
4 | B4 | 0.08
5 | B5 | 0.07
6 | B6 | 0.06
7 | B7 | 0.08
8 | B8 | 0.08
9 | B9 | 0.08
10 | B10 | 0.31
11 | B11 | 0.07
12 | B12 | 0.06
13 | B13 | 0.06
14 | B14 | 0.09
15 | B15 | 0.08
16 | B16 | 0.07
17 | B17 | 0.06

Row | Binder | Anti-CD28 Fab signal in the presence of CD28
18 | B18 | 0.08
19 | B19 | 0.07
20 | B20 | 0.05
21 | B21 | 0.08
22 | B22 | 0.06
23 | B23 | 0.06
24 | B24 | 0.08
25 | B25 | 0.08
26 | B26 | 0.09
27 | B27 | 0.07
28 | B28 | 0.08
29 | B29 | 0.06
30 | B30 | 0.13
31 | B31 | 0.1
32 | B32 | 0.07
33 | B33 | 0.07

molecular target: T1, anti-CD28 Fab (SEQ ID NOs: 202, 203); test: phage ELISA on captured Fab;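 also: ELISA with clonal phage supernatants added to wells preincubated with CD28 antigen or with blocking buffer only, bound phage detected by HRP-conjugated anti-M13 antibody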
Procedure: as §1

Row | Binder | Anti-CD28 Fab (SEQ ID NOs: 202, 203) signal
34 | B1 | 1.58
35 | B2 | 1.53
36 | B3 | 1.54
37 | B4 | 1.53
38 | B5 | 1.58
39 | B6 | 1.49
40 | B7 | 1.52
41 | B8 | 1.58
42 | B9 | 1.57
43 | B10 | 1.5
44 | B11 | 1.53
45 | B12 | 1.61
46 | B13 | 1.59
47 | B14 | 1.57
48 | B15 | 1.62
49 | B16 | 1.58
50 | B17 | 1.58

Row | Binder | Anti-CD28 Fab (SEQ ID NOs: 202, 203) signal
51 | B18 | 1.49
52 | B19 | 1.62
53 | B20 | 1.57
54 | B21 | 1.52
55 | B22 | 1.53
56 | B23 | 1.52
57 | B24 | 1.57
58 | B25 | 1.54
59 | B26 | 1.58
60 | B27 | 1.53
61 | B28 | 1.51
62 | B29 | 1.5
63 | B30 | 1.53
64 | B31 | 1.52
65 | B32 | 1.59
66 | B33 | 1.61
